The source of these data is patent US20250084169A1 (published 2025).

Experiment in all cases: SPR
For orientation: Surface plasmon resonance follows binding to a sensor surface in real time, without labels.

Assay [1] deals with T1, recombinant human full-length CD20 (human, UniProt P11836 1-297).
T1 chain: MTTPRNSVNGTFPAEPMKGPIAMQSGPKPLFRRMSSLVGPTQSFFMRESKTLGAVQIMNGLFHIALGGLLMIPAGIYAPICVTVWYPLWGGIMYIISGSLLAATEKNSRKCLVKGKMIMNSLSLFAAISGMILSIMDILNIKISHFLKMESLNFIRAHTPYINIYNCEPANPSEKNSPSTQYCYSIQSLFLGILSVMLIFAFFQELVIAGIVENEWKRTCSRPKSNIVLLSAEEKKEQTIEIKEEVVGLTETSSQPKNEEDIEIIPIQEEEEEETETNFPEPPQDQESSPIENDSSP

Assay [2] addresses T2, recombinant human Fc gamma RIIa (CD32a) 131R (human, UniProt P12318 36-218).
T2 chain: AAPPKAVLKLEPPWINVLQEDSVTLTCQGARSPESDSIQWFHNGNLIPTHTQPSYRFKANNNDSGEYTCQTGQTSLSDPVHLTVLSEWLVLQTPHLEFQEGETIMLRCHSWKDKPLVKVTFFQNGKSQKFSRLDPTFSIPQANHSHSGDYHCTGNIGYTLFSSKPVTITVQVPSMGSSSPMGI

The target of assay [3] is T3, recombinant human Fc gamma RI (CD64) (human, UniProt P12314 16-288).
T3 chain: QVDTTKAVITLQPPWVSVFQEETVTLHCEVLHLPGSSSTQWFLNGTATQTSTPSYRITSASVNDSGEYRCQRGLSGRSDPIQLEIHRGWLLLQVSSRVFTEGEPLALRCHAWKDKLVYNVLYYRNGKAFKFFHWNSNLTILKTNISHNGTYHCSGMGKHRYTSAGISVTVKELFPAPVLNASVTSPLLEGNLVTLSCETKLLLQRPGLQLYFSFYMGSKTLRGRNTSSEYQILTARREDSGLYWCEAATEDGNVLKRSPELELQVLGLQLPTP

The target of the next assay is complement component C1q (UniProt P02745 23-245; P02746 28-253; P02747 29-245).
Assay [4] addresses recombinant human Fc gamma RIIIa (CD16a) 158V (human, UniProt P08637 17-208).
The next assay has as its target T4, recombinant human CD19 (human, UniProt P15391 20-291).
T4 chain: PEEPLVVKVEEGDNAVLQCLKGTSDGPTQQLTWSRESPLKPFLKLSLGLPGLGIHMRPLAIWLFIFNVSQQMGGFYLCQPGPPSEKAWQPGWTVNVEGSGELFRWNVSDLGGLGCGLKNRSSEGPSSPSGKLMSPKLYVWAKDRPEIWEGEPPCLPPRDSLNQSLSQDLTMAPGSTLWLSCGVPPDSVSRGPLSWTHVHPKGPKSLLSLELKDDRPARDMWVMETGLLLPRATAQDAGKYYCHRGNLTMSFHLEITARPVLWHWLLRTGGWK

Chain of recombinant human Fc gamma RIIIa (CD16a) 158V (P08637 17-208 F176V): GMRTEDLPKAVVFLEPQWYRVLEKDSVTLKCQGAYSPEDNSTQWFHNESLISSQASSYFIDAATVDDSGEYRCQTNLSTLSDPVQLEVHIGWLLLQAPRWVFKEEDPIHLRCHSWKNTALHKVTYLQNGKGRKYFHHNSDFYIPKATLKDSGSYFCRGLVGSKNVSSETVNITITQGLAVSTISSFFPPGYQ
Chain of complement component C1q (P02745 23-245, chain 1 of 3): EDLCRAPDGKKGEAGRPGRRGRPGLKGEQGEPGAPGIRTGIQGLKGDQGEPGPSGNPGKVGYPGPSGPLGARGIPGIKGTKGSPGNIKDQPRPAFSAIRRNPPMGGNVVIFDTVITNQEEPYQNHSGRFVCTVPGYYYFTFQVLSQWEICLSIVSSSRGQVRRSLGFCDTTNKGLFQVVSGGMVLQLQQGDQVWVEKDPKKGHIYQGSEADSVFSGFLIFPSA
Chain of complement component C1q (P02746 28-253, chain 2 of 3): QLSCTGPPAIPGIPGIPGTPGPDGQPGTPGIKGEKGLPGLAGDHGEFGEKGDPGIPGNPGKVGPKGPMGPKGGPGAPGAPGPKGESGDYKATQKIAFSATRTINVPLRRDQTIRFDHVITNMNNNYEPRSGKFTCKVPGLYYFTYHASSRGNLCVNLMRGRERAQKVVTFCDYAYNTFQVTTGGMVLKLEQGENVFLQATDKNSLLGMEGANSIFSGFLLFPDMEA
Chain of complement component C1q (P02747 29-245, chain 3 of 3): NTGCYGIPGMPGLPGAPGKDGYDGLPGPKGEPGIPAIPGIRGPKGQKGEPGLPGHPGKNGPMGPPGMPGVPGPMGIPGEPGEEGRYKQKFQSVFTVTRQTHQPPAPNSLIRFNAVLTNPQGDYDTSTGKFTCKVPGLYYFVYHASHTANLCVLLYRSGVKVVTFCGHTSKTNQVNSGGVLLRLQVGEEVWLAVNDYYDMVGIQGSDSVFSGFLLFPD

B1: Rituximab (antibody)
VH: not shown
VL: QIVLSQSPAILSASPGEKVTMTCRASSSVSYIHWFQQKPGSSPKPWIYATSNLASGVPVRFSGSGSGTSYSLTISRVEAEDAATYYCQQWTSNPPTFGGGTKLEIKRTVAAPSVFIFPPSDEQLKSGTASVVCLLNNFYPREAKVQWKVDNALQSGNSQESVTEQDSKDSTYSLSSTLTLSKADYEKHKVYACEVTHQGLSSPVTKSFNRGEC
For the molecule B1, the equilibrium dissociation constant (Kd) in assay [1] was found to be 0.596 nM.

B2: HB1905 (bispecific antibody)
light 1: DIQMTQTTSSLSASLGDRVTISCRASQDISKYLNWYQEKPDGTVKLLIYHTSRLHSGVPSRFSGSGSGTDYSLTISNLEQEDIATYFCQQGNTLPYTFGGGTKLEIKRTVAAPSVFIFPPSDEQLKSGTASVKCLLNNFYPREAKVQWKVDNALQSGNSQESVTEQDSKDSTYSLSSTLTLSKADYEKHKVYACEVTHQGLSSPVTKSFNRGEC
heavy 1: EVKLQESGPGLVAPSQSLSVTCTVSGVSLPDYGVSWIRKPPRKGLEWLGVIWGSETTYYNSALKSRLTIIKDNSKSQVFLKMSSLQTDDTAIYYCAKHYYYGGSYAMDYWGQGTSVTVSSASTKGPSVFPLAPSSKSTSGGTAALGCLVKDYFPEPVTVSWNSGALTSGVHTFPAVLQSSGLYSLESVVTVPSSSLGTQTYICNVNHKPSNTKVDKKVEPKSCTDWSPYADQSIKVRISLKSALGDKAYEWNDNEMYLFRSSVAYAMRQYFLKVKNQMILFGEEDVRVANLKPRISFNFFVTAPKNVSDIIPRTEVEKAIRMSRSRINDAFRLNDNSLEFLGIQPTLGPPNQPPVSTSTSPTRSMAPGAVHLPQPVSTRDKTHTCPPCPAPELLGGPSVFLFPPKPKDTLMISRTPEVTCVVVDVSHEDPEVKFNWYVDGVEVHNAKTKPREEQYNSTYRVVSVLTVLHQDWLNGKEYKCKVSNKALPAPIEKTISKAKGQPREPQVCTLPPSRDELTKNQVSLSCAVKGFYPSDIAVEWESNGQPENNYKTTPPVLDSDGSFFLVSKLTVDKSRWQQGNVFSCSVMHEALHNRFTQKSLSLSPG
light 2: QVQLQQPGAELVKPGASVKMSCKASGYTFTSYNMHWVKKTPGRGLEWIGAIYPGNGDTSYNQKFKGKATLTADKSSSTAYMQLSSLTSEDSAVYYCARSTYYGGDWYFNVWGAGTLVTVSSASVAAPSVFIFPPSDEQLKSGTASVECLLNNFYPREAKVQWKVDNALQSGNSQESVTEQDSKDSTYSLSSTLTLSKADYEKHKVYACEVTHQGLSSPVTKSFNRGEC
heavy 2: not shown
On to B2, for which the dissociation constant (Kd) is 380 nM in assay [2]; 0.234 nM in assay [3]; less than 0.18 nM in assay [1]; 115 nM with complement component C1q; 493 nM in assay [4]; 4.8 nM in the assay with recombinant human CD19.

B3: HB1906 (bispecific antibody)
light 1: DIQMTQTTSSLSASLGDRVTISCRASQDISKYLNWYQEKPDGTVKLLIYHTSRLHSGVPSRFSGSGSGTDYSLTISNLEQEDIATYFCQQGNTLPYTFGGGTKLEIKRTVAAPSVFIFPPSDEQLKSGTASVKCLLNNFYPREAKVQWKVDNALQSGNSQESVTEQDSKDSTYSLSSTLTLSKADYEKHKVYACEVTHQGLSSPVTKSFNRGEC
heavy 1: EVKLQESGPGLVAPSQSLSVTCTVSGVSLPDYGVSWIRKPPRKGLEWLGVIWGSETTYYNSALKSRLTIIKDNSKSQVFLKMSSLQTDDTAIYYCAKHYYYGGSYAMDYWGQGTSVTVSSASTKGPSVFPLAPSSKSTSGGTAALGCLVKDYFPEPVTVSWNSGALTSGVHTFPAVLQSSGLYSLESVVTVPSSSLGTQTYICNVNHKPSNTKVDKKVEPKSCTDWSPYADQSIKVRISLKSALGDKAYEWNDNEMYLFRSSVAYAMRQYFLKVKNQMILFGEEDVRVANLKPRISFNFFVTAPKNVSDIIPRTEVEKAIRMSRSRINDAFRLNDNSLEFLGIQPTLGPPNQPPVSTSTSPTRSMAPGAVHLPQPVSTRDKTHTCPPCPAPELLGGPSVFLFPPKPKDTLMISRTPEVTCVVVDVSHEDPEVKFNWYVDGVEVHNAKTKPREEQYNSTYRVVSVLTVLHQDWLNGKEYKCKVSNKALPAPIEKTISKAKGQPREPQVCTLPPSRDELTKNQVSLSCAVKGFYPSDIAVEWESNGQPENNYKTTPPVLDSDGSFFLVSKLTVDKSRWQQGNVFSCSVMHEALHNRFTQKSLSLSPG
light 2: QVQLQQPGAELVKPGASVKMSCKASGYTFTSYNMHWVKETPGRGLEWIGAIYPGNGDTSYNQKFKGKATLTADKSSSTAYMQLSSLTSEDSAVYYCARSTYYGGDWYFNVWGAGTLVTVSSASVAAPSVFIFPPSDEQLKSGTASVECLLNNFYPREAKVQWKVDNALQSGNSQESVTEQDSKDSTYSLSSTLTLSKADYEKHKVYACEVTHQGLSSPVTKSFNRGEC
heavy 2: not shown
As to B3, the Kd in assay [2] worked out at 329 nM; in assay [3], 0.259 nM; in assay [1], 0.423 nM; in the assay with complement component C1q it was 115 nM; in assay [4], 488 nM; with recombinant human CD19 it was 3.8 nM.

The Kd is the concentration at which binding is half-saturated.
